According to PMC12198324:

What was measured:
[1] = target: rat µ opioid receptor (HA-µOR), stably expressed in HEK293 cells (rat) (UniProt P33535); assay: radioligand binding; competition with 5 nM [3H]-naloxone as tracer; 20 µg total membranes of HEK293-µOR cells in DMEM, 37 °C, 1 h, filtration over GF/C filters; Ki
[2] = target: rat µ opioid receptor (HA-µOR), stably expressed in HEK293 cells (rat) (UniProt P33535)

Chain of UniProt P33535 (P33535 whole entry): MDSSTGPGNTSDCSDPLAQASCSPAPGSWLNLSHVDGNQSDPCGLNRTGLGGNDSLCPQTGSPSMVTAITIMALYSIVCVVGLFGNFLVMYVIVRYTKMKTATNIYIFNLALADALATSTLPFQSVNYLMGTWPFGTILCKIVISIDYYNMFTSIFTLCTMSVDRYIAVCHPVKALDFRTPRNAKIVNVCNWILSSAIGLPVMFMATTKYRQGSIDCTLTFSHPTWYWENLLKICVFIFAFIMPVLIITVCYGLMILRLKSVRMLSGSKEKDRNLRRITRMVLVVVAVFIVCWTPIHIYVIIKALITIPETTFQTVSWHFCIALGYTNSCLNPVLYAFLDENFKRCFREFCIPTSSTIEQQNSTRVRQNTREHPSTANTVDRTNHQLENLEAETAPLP

endomorphin-1 (peptide)
Ki [1]: 39.7 nM
ERK-1/2 phosphorylation after 2.5 min in HEK293-µOR cells (western blot), EC50 [2]: 5.8 nM
inhibition of FSK (10 µM) induced cAMP accumulation in HEK293-µOR cells, EC50 [2]: 4.17 nM
